Measured values as given in US20240189352A1.

Target: RAC2^P29L peptide … presented by HLA-A2 (peptide-loaded T2 cells) (human)
Experiment: cell-based or functional assay

B1: RAC2-T001 TCR (TCR)
TCR alpha: GENVEQHPSTLSVQEGDSAVIKCTYSDSASNYFPWYKQELGKGPQLIIDIRSNVGEKKDQRIAVTLNKTAKHFSLHITETQPEDSAVYFCAASMGNAGNMLTFGGGTRLMVKPH
TCR beta: EPEVTQTPSHQVTQMGQEVILRCVPISNHLYFYWYRQILGQKVEFLVSFYNNEISEKSEIFDDQFSVERPDGSNFTLKIRSTKLEDSAMYFCASSETSGASYEQYFGPGTRLTVT
  IFNγ production by TCR-transduced T cells (relative): 100%

B2: RAC2-T002 TCR (TCR)
TCR alpha: AQSVTQLGSHVSVSEGALVLLRCNYSSSVPPYLFWYVQYPNQGLQLLLKYTTGATLVKGINGFEAEFKKSETSFHLTKPSAHMSDAAEYFCAVGANNLFFGTGTRLTVIPY
TCR beta: EPEVTQTPSHQVTQMGQEVILRCVPISNHLYFYWYRQILGQKVEFLVSFYNNEISEKSEIFDDQFSVERPDGSNFTLKIRSTKLEDSAMYFCASSEWRGSSYNEQFFGPGTRLTVL
  IFNγ production by TCR-transduced T cells (relative): 100%
